This is an account of results in doi:10.1101/2020.03.11.988071 (bioRxiv, 2020).

The target of the assay is T1, 4H.01 (synthetic construct (de novo design)).
T1 chain: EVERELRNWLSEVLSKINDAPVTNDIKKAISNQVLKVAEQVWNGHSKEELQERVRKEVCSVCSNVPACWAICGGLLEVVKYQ
Put plainly: SPR.

B1: 2D10 IgG (antibody, V domains shown)
VH: QVQLVQSGPEVKKPGASVRLSCKASGYVFTNYGVSWVRQAPGQGLEWMGWSSPYNGNTYYAQKLKARVTMTTDTSTNTAYMELRSLRSDDTAVYYCGRDMLGVVQAVAGPFDSWGQGTLVTVSS
VL: DTPMTQSPSSVSASVGDRVTISCRASQGISNSLAWYQQKLGKAPQLLIYAASSLQSGVPSRFSGSGSGTDFTLTISSLQPEDFATYYCQQTNTFPFTFGPGTKVEVR
B1 showed a Kd of 200 nM.

B2: Motavizumab IgG (antibody, V domains shown)
VH: QVTLRESGPALVKPTQTLTLTCTFSGFSLSTAGMSVGWIRQPPGKALEWLADIWWDDKKHYNPSLKDRLTISKDTSKNQVVLKVTNMDPADTATYYCARDMIFNFYFDVWGQGTTVTVSS
VL: DIQMTQSPSTLSASVGDRVTITCSASSRVGYMHWYQQKPGKAPKLLIYDTSKLASGVPSRFSGSGSGTEFTLTISSLQPDDFATYYCFQGSGYPFTFGGGTKVEIK
On to B2, for which the Kd was 0.5 nM.
